Laboratory results published in paper PMC5940392 (Oncotarget, 2018).

Target: Lysine-specific demethylase 1 (human (endogenous in HEL), UniProt O60341 1-852)
Experiment: affinity purification with mass spectrometry; LSD1-IP from HEL cells treated with NCD38 or DMSO; label-free quantification (Progenesis QI); binding rate change = normalized abundance in NCD38-treated cells divided by that in DMSO-treated cells, normalized to LSD1
Settings: partners not purified

binding rate after NCD38 relative to DMSO: 27%
B1: GFI1B (natural protein)
chain: not shown
notes: GFI1B, human, UniProtKB Q5VTD9; source: endogenous, HEL whole-cell lysate
